Laboratory results taken from article PMC8982573 (EMBO Reports, 2022).

Target: SARS-CoV-2 spike receptor-binding domain fused to Venus YFP (RBD-vYFP) (SARS-CoV-2, UniProt P0DTC2 330-526, chemically biotinylated using NHS-Biotin)
Assay: grating-coupled interferometry (GCI)
Details: both partners purified

B1: Sybody Sb#15 (VHH)
VHH: QVQLVESGGGLVQAGGSLRLSCAASGFPVKNFEMEWYRKAPGKEREWVAAIQSGGVETYYADSVKGRFTISRDNAKNTVYLQMNSLKPEDTAVYYCFVYVGRSYIGQGTQVTVS
notes: also called Sb#y15; source: E. coli MC1061, periplasm, purified (Ni-NTA, SEC)
With B1 as the binder, how does the Kd read?
Its Kd is 14.4 nM.
